This note sets out measurements from patent US20130330359A1 (AbbVie / Abbott, published 2013).

Assay [1] has as its target T1, mouse:human chimeric antibody (used as human IgG / human IgG Fc antigen).
T1 construct: also called Hu IgG; human IgG Fc portion
The assay is described as follows: direct EIA: mouse:human chimeric antibody coated at 1.0 ug/mL; supernatant diluted 1:125; goat anti-mouse IgG Fc-HRPO. Here is the method:
A mouse:human chimeric antibody or RGMc-huFc was coated on the solid phase of micro-titer EIA plates at 1.0 ug/mL. After the antigen had been coated on the solid phase, it was removed and any open binding sites on the plates were blocked using BSA block solution. The wells were washed with distilled water. Cell supernatants and control reagents were added to the blocked plates and allowed to incubate at room temperature for at least one hour. The negative control was a purified mAb from a different antigen system. The positive control for human IgG was a purified anti-hu IgG mAb developed against another antigen containing human IgG Fc carrier protein. The RGMc positive control is Novus mab 1C12. Following this incubation, the solutions were removed from the plates and they were washed with distilled water. Goat anti-mouse IgG Fc-HRPO (Jackson Immunoresearch) diluted to approximately 200 ng/mL in block solution was added to the plates and allowed to incubate for 30 minutes at room temperature. The plates were washed with distilled water and o-phenylenediamine substrate (Abbott Laboratories) was used as the chromogen to generate signal. Plates were read at 492 nm and the results were analyzed.

The target in assay [2] is T2, RGMc antigen: amino acids 33-391 of RGMc followed by human Fc (human, UniProt Q6ZVN8 33-391).
T2 construct: also called RGMc-huFc; RGMc-Fc; not shown: human Fc
T2 sequence: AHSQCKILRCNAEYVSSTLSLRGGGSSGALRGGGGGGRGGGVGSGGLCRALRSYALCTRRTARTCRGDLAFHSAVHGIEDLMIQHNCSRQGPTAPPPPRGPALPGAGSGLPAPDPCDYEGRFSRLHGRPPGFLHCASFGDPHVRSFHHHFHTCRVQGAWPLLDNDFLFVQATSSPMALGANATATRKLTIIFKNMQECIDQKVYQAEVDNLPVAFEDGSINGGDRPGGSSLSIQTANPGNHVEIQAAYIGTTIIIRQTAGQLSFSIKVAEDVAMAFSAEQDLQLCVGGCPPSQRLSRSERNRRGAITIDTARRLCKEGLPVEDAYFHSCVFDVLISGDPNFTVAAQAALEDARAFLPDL
The assay is described as follows: chemiluminescence immunoassay: supernatant mAb captured on sheep anti-mouse IgG Fc, RGMc-huFc at 200 ng/mL, acridinium-labeled goat anti-RGMc detection. Here is the method: Cell supernatant samples were analyzed for anti-RGMc antibodies by Chemiluminescence immunoassay (CIA). Sheep anti-mouse IgG Fc (Jackson Immunoresearch, West Grove, Pa.) was coated on 96 well micro-titer CIA plates (NUNC) at 5 ug/mL. After the capture reagent had been coated on the solid phase, it was removed and any open binding sites on the plates were blocked using a Fish gel/PBS (2% v/v) block solution. The wells were washed with distilled water and cell supernatants were added to the blocked plates and allowed to incubate at room temperature for at least one hour. The anti-mouse IgG Fc captures the anti-RGMc mouse antibody from the supernatant. Following the incubation, the supernatants were washed off using distilled water. A mouse/human IgG chimeric antibody (Abbott Laboratories) diluted in fish gel block to 5 ug/ml was added to each well and incubated for approximately 30 minutes at room temperature to block any captured mAbs that are specific for human IgG Fc portion of the immunogen. Following the incubation, the human IgG blocking solution was washed off using distilled water. RGMc-huFc antigen was then added to the plates at 200 ng/mL in fish gel block and incubated for 30 minutes at room temperature. Following this incubation, the antigen was washed from the plates using distilled water. Acridinium labeled goat anti-RGMc polyclonal antibody (R&D Systems, Minneapolis, Minn.) was diluted to 200 ng/ml in fish gel block, then added to the plates and allowed to incubate for 30 minutes at room temperature. The plates were washed with distilled water then processed on the Microbeta Jet instrument (Perkin Elmer, Waltham, Mass.). The Microbeta Jet adds Architect© Pre-Trigger and Trigger solutions (Abbott Laboratories). The plates are then read for flash chemiluminescence in luminescent counts per second (LCPS). […] The positive control (PC) used in this assay was spent medium from unfused splenocytes harvested from mouse #814 that were cultured for 7 to 10 days at 37° C.

Assay [3] concerns the target T3, carrier free RGMa (R&D Systems) (UniProt Q96B86 48-422, limits assumed).
T3 construct: also called RGMa-CF
T3 sequence (looked up): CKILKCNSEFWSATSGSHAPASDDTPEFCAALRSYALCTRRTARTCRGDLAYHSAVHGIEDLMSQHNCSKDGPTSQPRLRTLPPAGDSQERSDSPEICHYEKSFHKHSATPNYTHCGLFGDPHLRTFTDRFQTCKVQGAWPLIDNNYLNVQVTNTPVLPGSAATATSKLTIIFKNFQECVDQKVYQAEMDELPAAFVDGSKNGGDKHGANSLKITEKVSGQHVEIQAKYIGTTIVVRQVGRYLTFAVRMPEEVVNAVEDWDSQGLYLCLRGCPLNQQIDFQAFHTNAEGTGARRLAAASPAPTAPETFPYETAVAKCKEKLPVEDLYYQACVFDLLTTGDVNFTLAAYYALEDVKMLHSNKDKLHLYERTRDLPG
As to the kind of experiment: EIA on coated carrier-free RGMa (summary of specificity). Here is the method: Clones were then tested for cross-reactivity with RGMa and RGMb by EIA. Carrier free RGMa, RGMb, or RGMc (R&D Systems) was coated on the solid phase of micro-titer EIA plates at 0.5 ug/mL. After the antigen had been coated on the solid phase, it was removed and any open binding sites on the plates were blocked using fish gel block solution. The wells were washed with distilled water following this incubation. Cell supernatants and control reagents were added to the blocked plates and allowed to incubate at room temperature for at least one hour. The negative control was a purified mouse mAb from a different antigen system. The positive control for RGMa, RGMb, & RGMc was a goat anti-RGMa, RGMb, or RGMc polyclonal antibody (R&D Systems). Following this incubation, the solutions were removed from the plates and they were washed with distilled water. Donkey anti-Goat IgG-HRPO diluted to approximately 200 ng/mL in block solution was added to the plates with the positive control test samples and goat anti-mouse IgG-HRPO (Jackson Immunoresearch) diluted to approximately 200 ng/mL in block solution was added to the plates with the fusion #1 test samples. All plates were allowed to incubate for 30 minutes at room temperature. The plates were washed with distilled water and o-phenylenediamine substrate was used as the chromogen to generate signal. Plates were read at 492 nm and the results were analyzed.

B1: 1A-2860-475 (antibody, V domains shown)
VH: DVLLQESGPDLVKPSQSLSLTCTVTGYSISSGYSWHWIRQFPGNKLEWMAYIHYTGNTNYNPSLKSRISITRDTSKNQFFLHLNSVTTEDTATYYCALFGLSGFWGQGTLVTVSA
VL: DVLMTQTPLSLPVSLGDQASISCRSSQTIVHSNGNTYLDWYLQKPGQSPKVLIYKVSNRFSGVPDRFSGSGSGTDFTLKISRVEAEDLGVYFCLQGSHVPWTFGGGTQLEIKR
notes: The parent line 1A-2860 and subclone 1A-2860-177 used in the assays are treated here as the same antibody; also called 1A-2860-177
As for B1, the “absorbance at 492 nm” value in assay [1] came out at 0.06. The LCPS in assay [2] was determined as 6610 LCPS. Moreover, in assay [3], the binding result is given as “no binding”.

B2: 1B-3363-715 (antibody, V domains shown)
VH: DVQLQESGPDLVKPSQSLSLTCTVTGYSITSGYSWHWIRQFPGNKLEWMGYIHYSGNTDYNPSLKSRISFTRDTSKNQFFLQLNSVTTEDTATYFCAIGTGPWGQGTTLTVSS
VL: DVLMTQTPLSLPVSLGDQASISCRSSQNIVHSNGHTYLEWYLQKPGQSPKLLIYKVSNRFSGVPDRFSGSGSGTDFTLKISRVEAEDLGVYYCFQGSHVPWTFGGGTKLEIKR
notes: The parent line 1B-3363 and subclone 1B-3363-502 used in the assays are treated here as the same antibody; also called 1B-3363-502
In the case of B2, the “absorbance at 492 nm” value in assay [1] was determined as 0.07. The same molecule displayed an LCPS in assay [2] of 5260 LCPS. Moreover, the binding result in assay [3] was “no binding”.

B3: 1A-2989-187 (antibody, V domains shown)
VH: EVQLQQSGAELVRSGASVKLSCTASGFNIRDFYIHWVKQRPEQGLEWLGWIDPENGDIEYAPKFQGKATMTADTSSNTAYLQLNSLTSEDTALYYCNGNGYYLDYWGQGTTLTVSS
VL: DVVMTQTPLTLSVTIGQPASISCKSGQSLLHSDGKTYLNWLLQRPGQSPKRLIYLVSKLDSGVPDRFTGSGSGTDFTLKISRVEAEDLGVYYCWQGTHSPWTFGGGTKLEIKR
For the molecule B3, the “absorbance at 492 nm” value in assay [1] is 0.06. In assay [2], this molecule registered an LCPS of 2500 LCPS. Also, the binding result in assay [3] is reported as “no binding”.
